# Assay results reported in publication PMC2119935.
# Target: F-actin (polymerised rabbit skeletal muscle actin) (rabbit) (UniProt P68135)
# Test: co-sedimentation
substance,measurement,value
GST-ΔFok fusion protein (c-Abl type IV amino acids 1015-1142 fused to GST) (domain or fragment),Kd,18 µM
